US20170266254A1 (AILERON THERAPEUTICS, published 2017)
Bridges are numbered along the chain shown (N, C = ends). [ ]: non-standard residue; d: D form. R8 = C=CCCCCCC[C@@](C)(N)C(=O)O; S5 = C=CCCC[C@](C)(N)C(=O)O

T1: C-terminally 6x Histidine-tagged Beta-Catenin (aa 134-668, 59 KD) (UniProt P35222 134-668)
T1 construct: range 134-668; Armadillo repeat region
T1 sequence: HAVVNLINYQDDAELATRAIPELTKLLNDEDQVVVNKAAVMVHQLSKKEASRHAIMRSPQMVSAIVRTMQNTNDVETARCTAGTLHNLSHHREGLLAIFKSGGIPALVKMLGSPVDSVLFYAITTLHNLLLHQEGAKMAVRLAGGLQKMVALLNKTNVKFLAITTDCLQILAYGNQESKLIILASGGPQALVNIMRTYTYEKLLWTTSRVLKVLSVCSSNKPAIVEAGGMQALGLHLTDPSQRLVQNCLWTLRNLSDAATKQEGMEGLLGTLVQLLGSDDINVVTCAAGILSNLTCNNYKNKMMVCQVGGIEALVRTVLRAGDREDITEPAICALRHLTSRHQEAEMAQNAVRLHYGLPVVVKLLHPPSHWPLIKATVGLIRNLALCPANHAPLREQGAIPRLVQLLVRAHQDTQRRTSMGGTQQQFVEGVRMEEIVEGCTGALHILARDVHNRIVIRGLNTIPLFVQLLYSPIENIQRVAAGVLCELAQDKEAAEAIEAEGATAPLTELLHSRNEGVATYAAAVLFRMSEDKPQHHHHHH

B1: SP55 (peptide)
peptide: Ac-SA[S5]RNL[S5]DVKSSLV-NH2
modifications: staple 3-7
SMILES: CC(=O)N[C@@H](CO)C(=O)N[C@@H](C)C(=O)N[C@@]1(C)CCCC=CCCC[C@@](C)(C(=O)N[C@@H](CC(=O)O)C(=O)N[C@H](C(=O)N[C@@H](CCCCN)C(=O)N[C@@H](CO)C(=O)N[C@@H](CO)C(=O)N[C@@H](CC(C)C)C(=O)N[C@H](C(N)=O)C(C)C)C(C)C)NC(=O)[C@H](CC(C)C)NC(=O)[C@H](CC(N)=O)NC(=O)[C@H](CCCNC(=N)N)NC1=O
notes: also called Ac-SA$RNL$DVKSSLV-NH2
B2: SP56 (peptide)
peptide: Ac-RDLA[S5]VVS[S5]LVNES-NH2
modifications: staple 5-9
SMILES: CC(=O)N[C@@H](CCCNC(=N)N)C(=O)N[C@@H](CC(=O)O)C(=O)N[C@@H](CC(C)C)C(=O)N[C@@H](C)C(=O)N[C@@]1(C)CCCC=CCCC[C@@](C)(C(=O)N[C@@H](CC(C)C)C(=O)N[C@H](C(=O)N[C@@H](CC(N)=O)C(=O)N[C@@H](CCC(=O)O)C(=O)N[C@@H](CO)C(N)=O)C(C)C)NC(=O)[C@H](CO)NC(=O)[C@H](C(C)C)NC(=O)[C@H](C(C)C)NC1=O
notes: also called Ac-RDLA$VVS$LVNES-NH2
B3: SP5 (peptide)
peptide: Ac-RNLADVKS[S5]LVN[S5]S-NH2
modifications: staple 9-13
SMILES: CC(=O)N[C@@H](CCCNC(=N)N)C(=O)N[C@@H](CC(N)=O)C(=O)N[C@@H](CC(C)C)C(=O)N[C@@H](C)C(=O)N[C@@H](CC(=O)O)C(=O)N[C@H](C(=O)N[C@@H](CCCCN)C(=O)N[C@@H](CO)C(=O)N[C@@]1(C)CCCC=CCCC[C@@](C)(C(=O)N[C@@H](CO)C(N)=O)NC(=O)[C@H](CC(N)=O)NC(=O)[C@H](C(C)C)NC(=O)[C@H](CC(C)C)NC1=O)C(C)C
B4: SP6 (peptide)
peptide: Ac-RDLA[S5]VKS[S5]LVNQS-NH2
modifications: staple 5-9
SMILES: CC(=O)N[C@@H](CCCNC(=N)N)C(=O)N[C@@H](CC(=O)O)C(=O)N[C@@H](CC(C)C)C(=O)N[C@@H](C)C(=O)N[C@@]1(C)CCCC=CCCC[C@@](C)(C(=O)N[C@@H](CC(C)C)C(=O)N[C@H](C(=O)N[C@@H](CC(N)=O)C(=O)N[C@@H](CCC(N)=O)C(=O)N[C@@H](CO)C(N)=O)C(C)C)NC(=O)[C@H](CO)NC(=O)[C@H](CCCCN)NC(=O)[C@H](C(C)C)NC1=O
notes: also called Ac-RDLA$VKS$LVNQS-NH2
B5: SP7 (peptide)
peptide: Ac-RDLA[R8]VKSSLV[S5]QS-NH2
modifications: staple 5-12
SMILES: CC(=O)N[C@@H](CCCNC(=N)N)C(=O)N[C@@H](CC(=O)O)C(=O)N[C@@H](CC(C)C)C(=O)N[C@@H](C)C(=O)N[C@]1(C)CCCCCCC=CCCC[C@@](C)(C(=O)N[C@@H](CCC(N)=O)C(=O)N[C@@H](CO)C(N)=O)NC(=O)[C@H](C(C)C)NC(=O)[C@H](CC(C)C)NC(=O)[C@H](CO)NC(=O)[C@H](CO)NC(=O)[C@H](CCCCN)NC(=O)[C@H](C(C)C)NC1=O
notes: also called Ac-RDLA$r8VKSSLV$QS-NH2
B6: SP8 (peptide)
peptide: Ac-RDLANVKS[S5]LVN[S5]S-NH2
modifications: staple 9-13
SMILES: CC(=O)N[C@@H](CCCNC(=N)N)C(=O)N[C@@H](CC(=O)O)C(=O)N[C@@H](CC(C)C)C(=O)N[C@@H](C)C(=O)N[C@@H](CC(N)=O)C(=O)N[C@H](C(=O)N[C@@H](CCCCN)C(=O)N[C@@H](CO)C(=O)N[C@@]1(C)CCCC=CCCC[C@@](C)(C(=O)N[C@@H](CO)C(N)=O)NC(=O)[C@H](CC(N)=O)NC(=O)[C@H](C(C)C)NC(=O)[C@H](CC(C)C)NC1=O)C(C)C

The binders below were run against T1, C-terminally 6x Histidine-tagged … (assay: competitive fluorescence polarization, FAM-labelled linear probe as competitor, His-tagged beta-catenin 134-668).
Outline: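 FP competition in 25 mM Tris-HCl pH 7.5, 200 mM NaCl, 5 mM CHAPS, 2 mM DTT at room temperature. Competitor peptides at 40–0.7 μM 2× working range, constant DMSO. Probe (benchmark peptide with N-terminal FAM via β-Ala spacer) from 25 nM 10× stock. Read after 3 h in the dark, ex 485/em 528 nm.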
With B1 the IC50 was no less than 100 µM. B2 was tested, and the IC50 was no less than 100 µM. With B3 the IC50 was no less than 100 µM. In the case of B4, the IC50 is reported as no less than 100 µM. B5 was tested, and the IC50 was no less than 100 µM. Work on B6 yielded an IC50 of no less than 100 µM.
